{
  "source": "the DeepSol protein solubility set",
  "data": [
    {"assay": "soluble on expression in E. coli; label from the status in PepcDB or PDB records", "values": [
      {"sequence": "MSFVHQKCRNIDTVYLGSNIHRLNVPDNLVKWSQEWSGYNPPAHTDPKVDGAVWADPEIDEKTFQPSWNAIDGKINRVSYVCQYSFDPVTLRPLNPIGRTGLSGRGLLGRWGPNHAADPIVSRTNDNGDLEFVAVQRHDNGEWAIPGGMVDAGEHVSQTLRREFAEEAMHGIVDSENLDELWNNGKELYRGYVDDPRNTDNAWMETVVFNFHDSKGLLKNVALQAGDDAKALRWIAVNSNEPLYASHSHFIDLLKESHSH", "soluble on expression in E. coli": "not soluble"},
      {"sequence": "MAHHHHHHMSSAFLAQLPFVGSSSTLGWQHDDVARSYMEHVLHRARVLLPRRGWRIGLIKEFYPRGATLLGLNVNAGSEVCIRFRVPGKKNEFLPFHEVLCTALHEFTHCVHSRHDRAFWNLYYDLVKECEALEITMIQQGMRLYPAISSTPMSCTGTASQQSRSGREGRTAATASSARGGGRRLGNGGARGGGRGAGGGMSTGSRHVAQTVIKAGRAVSSSSSSPPSSAAFPGEGRRLGGGGFRQYDAPIGFTPTRDALRRILAGAAERRLARTPPLAATVTLGSHPLALSLHNTTFPQRDEGQSEVDDDDAPDCVPHSLSGHEDGGGWNCPRCGFRNDDNVVGSCAFCADCDDEDEGEATWRKRPRLDSDHSPLETPTIVVSLATASKTAPTQQLQQQQLECTAEEHYIVVSDEDDS", "soluble on expression in E. coli": "soluble"},
      {"sequence": "MATAVELALLKQPYFDLNALCKTVFVTYKAGPGLKKIVTVQAQYVDICNKPNVRGTVVSLPGSPGSHNDIKYMRDSFEKHNIRLICVNWPGSEFVTGGMNDTYTNAERNSYAKALMEKLELKKVEKLILLGHSRGGESALQLACTLSDDRSWPLIGAVMLNSPGFVVHRGISIRMGTINTVSFLVKLRWKIVDCILFPVLDWFYNDFVGLRVSDGKVCAAAMLPMQTFAFEEQRASIDEMKKKPWIRMFYAYGSKDFLVDESDSEELAMHFGGDHYIIHSKKESEETIPKIWNSYERGQSYVTANFTEEGHYLHKTYPEFLIQIFGGIFDVKTEKS", "soluble on expression in E. coli": "not soluble"},
      {"sequence": "MNVLRSGIVTMLLLAAFSVQAACTWPAWEQFKKDYISQEGRVIDPSDARKITTSEGQSYGMFSALAANDRAAFDNILDWTQNNLAQGSLKERLPAWLWGKKENSKWEVLDSNSASDGDVWMAWSLLEAGRLWKEQRYTDIGSALLKRIAREEVVTVPGLGSMLLPGKVGFAEDNSWRFNPSYLPPTLAQYFTRFGAPWTTLRETNQRLLLETAPKGFSPDWVRYEKDKGWQLKAEKTLISSYDAIRVYMWVGMMPDSDPQKARMLNRFKPMATFTEKNGYPPEKVDVATGKAQGKGPVGFSAAMLPFLQNRDAQAVQRQRVADNFPGSDAYYNYVLTLFGQGWDQHRFRFSTKGELLPDWGQECANSH", "soluble on expression in E. coli": "soluble"},
      {"sequence": "MSLDKDTVYAVVDIETTGTSVTDGDRIIQIGCVFVQHNQVINHFETDVNPLKEIPAAISRLTGITNKRVRHAPLFDDVAGTLYSLLTNTVFVAHNVNFDLPFINAELERVGYPALPIAAVDTVSLSQILLPTATSFRLRDLSRLFNIEHDNPHSADSDASATAELFIFLFRRLRALPMVTLQRMIDLQADLPLQTTTLFRVAQQLNEEGHHHHHH", "soluble on expression in E. coli": "not soluble"},
      {"sequence": "MKQKRSSSGLKKRIFSTFGKASEERPSLLLLDLPIDILLAITKQLDTETRMIVRKVSPAFRDIIDYQGSGVKTMKIGKDCITIDWKRIEYREGVHCSCLIIYQGHIKTKIYESPQSLMFQDLSILLKSPRIRLSWLDLAPISCTSYNWTGVDVNSIVKILEPIKSRHIERVYFQDINYAEVVLILQKFKAGFLREISLDSEQINGWSIPQIGGMVHLEQWKRAQHLKIHSFVNLDPLINHISHFHTIQLLCQSMSKLQMLKWKEIINTSKTLVKCVLRGNANFAGLARVFDPAFEQAYGNISYVSADEFNCTIRFMPENFCIMKLK", "soluble on expression in E. coli": "not soluble"},
      {"sequence": "AKTEQQIADIVNRTITPLMQEQAIPGMAVAIIYEGKPYYFTWGKADIANNHPVTQQTLFELGSVSKTFNGVLGGDAIARGEIKLSDPVTKYWPELTGKQWRGISLLHLATYTAGGLPLQIPDDITDKAALLRFYQNWQPQWTPGAKRLYANSSIGLFGALAVKPSGMSYEEAMTRRVLQPLKLAHTWITVPQSEQKNYAWGYREGKPVHVSPGQLDAEAYGVKSSVIDMARWVQANMDASHVQEKTLQQGIELAQSRYWRIGDMYQGLGWEMLNWPLKADSIINGSDSKVALAALPAVEVNPPVPAVKASWVHKTGSTGGFGSYVAFVPEKNLGIVMLANKSYPNPVRVEAAWRILEKLQ", "soluble on expression in E. coli": "soluble"},
      {"sequence": "TDPGAEELPARIFVALFDYDPLTMSPNPDAAEEELPFKEGQIIKVYGDKDADGFYRGETCARLGLIPCNMVSEIQADDEEMMDQ", "soluble on expression in E. coli": "soluble"},
      {"sequence": "MVRGIRGAITVEEDTPEAIHQATRELLLKMLEANGIQSYEELAAVIFTVTEDLTSAFPAEAARQIGMHRVPLLSAREVPVPGSLPRVIRVLALWNTDTPQDRVRHVYLREAVRLRPDLESAQ", "soluble on expression in E. coli": "soluble"},
      {"sequence": "MGSDKIHHHHHHMALAKLPQLESVFLTDAGLETDFIFNRGIDLPYFASITLLQSSDGKIALEEYFRGFLELARRMRCGLILESATWRASPDWAEPLGLSQQELDTLNTSAIAILRDLRDEFGSTMPAVVISGCLGPRGDGYDPGKIMSEEGAEAYHRHQAEVLASAGVDQLTAITMTNVPEAIGIAKAAKSLAVPVAISFTVETDGRLPTGDRLSDALRAVDQATASTPAYYMINCAHPSHFAAVLEDGADWVNRIGGLRANASRCSHAEVDAMSELDRGNPEELAALHSELRLRFPHINVLGGCCGTDLDHITAIAEACL", "soluble on expression in E. coli": "not soluble"},
      {"sequence": "MSLAQINVAILGAGRIAQSMAETLVKMAADDRYRDLVAPYAVAARDGERAAAFAAKYGFPVSYGSYEELVADPNVNLVYIATPHNFHAEQAILCMRAGKGVLVEKAFGANTQQAREILDVSDETGMLCTEAIWTRYMPSRGMIDDIIASGVIGEVQAIDANLCYPTTAKARITDPALAGGALLDVGVYPINFIDMIMHNAPIARVESSMQPYETGVDAHNSMTFYYQNGVMATAQSSILCHSDRMGAVWGTEGYLTCQNINNVEAIDMFDGSHAVTAHYDVPEQLTGYEYEVASTAQAMLDGRTECDEMPHSDTLRIMECMDSLRADWGLKYPFEAEGHHHHHH", "soluble on expression in E. coli": "soluble"},
      {"sequence": "MSLVKDIYSESIQIQIAASSMLSENITNATQMVMQCLLGGNKVIACGVSRSYANAQFLVSNLLNRYDLVRPSFPSVLLSLESAVGSSLVFEQPPEELYCHQFNASAKSGDLLIAFAPLGTEKIVLNIISHAVSKEVNVIVLTGSNNDAIQGILADKDLEISIPATKESRILENHLFVINALCELVDQTLFPSAEGGSHHHHHH", "soluble on expression in E. coli": "soluble"},
      {"sequence": "MAHHHHHHMKCQKIRRDIFIYMLYNFSFCAGKKEDKDKGKDKDKEKKKLESVPISHMGKKKKKNKGTSGHSKLPNVTPNTKCRLKLLKLERIKDYLLLEEEYITNQEQIKSSDDKNYVKLKIDDLRGSPVSVGTLEELIDENHGIIATSVGPEYYVNILSFVDKDLLEPGCSVLLNNKTNSVVGILLDEVDPLVSVMKVEKAPLESYADIGGLESQIQEIKEAVELPLTHPELYEDIGIKPPKGVILYGPPGTGKTLLAKAVANETSATFLRVVGSELIQKYLGDGPKLVREMFKVAEEHAPSIVFIDEIDAVGTKRYEATSGGEREIQRTMLELLNQLDGFDSRGDVKVIMATNRIDSLDPALIRPGRIDRKIQLPNPDTKTKRRIFQIHTSKMTMSPDVDLEEFVMSKDELSGADIKAICTEAGLLALRERRMKITQADLRKARDKALFQKKGNIPEGLYL", "soluble on expression in E. coli": "not soluble"},
      {"sequence": "MFLKILPRIRRPTRSYAAVLAARHEGFAKVMQSDLMAFENFLGQDAVKKDDITNHTTDWTGQFKGPGSVVLYPKSTEEVSAILAYCSKNKLAVVPQGGNTGLVGGSIPVHDEVVISMNKINKQFSFDDTMGILKCDSGFILEDLDNKLAKLGYMMPFDLGAKGSCQIGGNIATCAGGIRLIRYGSLHAHLLGLTVVLPDEHGTVLHLGSSIRKDNTTLHTPHLFLGSEGQLGVITSVTMTAVPKPKSVQSAMLGIESFKKCCEVLKLAKSSLTEILSSFELLDDATMECLKTNLGLHPVLNAPTPFSILVETSGSNEDHDMEKMSAFLDECLSKNLIIDGVLAGSSAEATKMWQLRESAPLAVTRDGYVYKHDVSLPLENYYELTNVMKERCGSLAKRIVTYGHLGDGNTHLNITSEKHNEELEKLLYPFLYEWVVDHGGSISAEHGIGQLKLPYSTFGKDPEERLLTKKLKNIFDPNGILNPYKTI", "soluble on expression in E. coli": "not soluble"},
      {"sequence": "MGHHHHHHSHMPVIQTESEHKPPVNGSYFAHVNPADGGCLLEKYSEKCHDFQCALLANLFASEGQPGKVIEVKAKRRTGPLNFVTCMRETLEKHYGNKPIGMGGTFIIQKGKVKSHIMPAEFSSCPLNSDEEVNKWLHFYEMKAPLVCLPVFVSRDPGFDLRLEHTHFFSRHGEGGHYHYDTTPDIVEYLGYFLPAEFLYRIGQPKETHSIGRD", "soluble on expression in E. coli": "not soluble"},
      {"sequence": "MTQNHSASLLVELLTEELPPKALARLSDAFAEGIAQRLAARDLIEGELAFERYATPRRLAVVVQNVRAVAPERQVREKVLPVSVALDAQGKPTAPLAKKLAALGHPNLSIADLERAHDGKAEAFFVNYASPGATLAEGLQAALDETLAKLPIPKVMTYQRPDGTDVQFVRPVHRLSALHDDRIVPVCAFGIDAGDTTLGHRFLSDGLVAIQHANAYADTLRDKGRVLAHFAGRKEAIRAQLEANAGGDQVVMPEALLDEVTSLVEWPVVYPCRFEDEFLQVPQECLILTMQTNQKYFALTDAAGKLRSRFLIVSNIETKTPDEIVEGNERVVRPRLADAKFFFEQDKKKPLADRVPLLANVVYHNKLGSQLARIERLETLAGEIAPAIGADATVAIRAARLAKADLLTDMVGEFPELQGTMGTYYARHDGEAEDVAIACSEHYQPRFSGDALPTTPVSTAVALADKLETIVGIWGIGLAPTGEKDPFALRRHALGVLRLLLEKQLPLDLVWLLRTTYERFAAVPDVAESTDAIHAFFVERLRGLLRERGYTAGEVDAVLSLNPTR", "soluble on expression in E. coli": "not soluble"},
      {"sequence": "MVKFIHCADLHLDSPFKSKSYLSPNIFEDVQKSAYESFKNIVDLALKQEVDFIIIAGDLFDSENRTLRAEVFLNEQFERLRKEQIFVYICHGNHDPLTSKITSQWPNNVSVFSNQVETYQAITKSGETIYIHGFSYQNDASYENKIDAYPSSQGQKGIHIGVLHGTYSKSSVKDRYTEFRLEDLNQRLYHYWALGHIHQREQLSDMPVINYPGNIQGRHFNELGEKGCLLVEGDHLKLTTQFYPTQFIKFEEATIETDHTSKQGLYDVIQSFKDKVRTEGKSFYRLNVRINSEDIIAPQDLIQLKEMITEFEENENQFVFIEDLNLQYVQNDEMPIVKEFSPELLDDASLFDSAMTDLYLNPRASKFLDDYNEFDKVELVNHAERLLKDEMRGEQNDN", "soluble on expression in E. coli": "not soluble"},
      {"sequence": "MAHHHHHHMDAAIAQLRGCLEELLTYYPHVLRNVFEVEPSPLAAPKLSQQRPRDSSALADVIEDFLTELTRVLSIGLCDDDLGLWSVLELLECVPARMQAVAEATATAPETAALSKHGAQEPLQQLQRFRFASQLVYLVRSAFPATAPAVRARIFLRLTLNQGCLVAALELLREWCRSELLVFYAASDRGRRNGAAGSASSVALLVQSDTDSDMWNSFVAAIAPVAGPPVAEIAAGAPKVAAQPFHLQLLVPGLDDNSAASHAYYTQVENYACGRQPTRPSALACYRAALRQHSGSARKHDRSFRAASAGEGAASSPKLSPHPAEQLVLRVESLSVDHRTASGKEVAPVSRGNVSYDSSSTLSSRPMTLEPLSFVHRERLRGAKKRRRRHPSLSTAGAVAREEDAAGSPTPEGKTDNTTSDNTGSVAEAALHTSTVVTEAKECQGAPEAGEKAAPPYRDDYASRDDDPQVAPTVGETGAAQAASRALDTVSTDSPASAPHCLSPALRAAESPNRTLDSSSAPALSPELRNLQHRLWLCWLAVVTHAESEERIRITVRDVDANIS", "soluble on expression in E. coli": "not soluble"}
    ]}
  ]
}
